Results: the supplement of paper PMC7877785
± gives the uncertainty stated by the source.

Test: self-splicing fitness, log relative to wild type (ln ratio); higher = more splicing; Tetrahymena group I intron in knt gene, E. coli kanamycin selection, DiMSum; sequences stand for … in CUCUCU…GGAGGGAAAAGUUAUCAGGCAUGCACCUGGUAGCUAGUCUUUAAACCAAUAGAUUGCAUCGGUUUAAAAGGCAAGACCGUCAAAUUGCGGGAAAGGGGUCAACAGCCGUUCAGUACCAAGUCUCAGGGGAAACUUUGAGAUGGCCUUGCAAAGGGUAUGGUAAUAAGCUGACGGACAUGGUCCUAACCACGCAGCCAAGUCCUAAGUCAACAGAUCUUCUGUUGAUAUGGAUGCAGUUCACAGACUAAAUGUCGGUCGGGGAAGAUGUAUUCUUCUCAUAAGAUAUAGUCGGACCUCUCCUUAAUGGGAGCUAGCGGAUGAAGUGAUGCAACACUGGAGCCGCUGGGAACUAAUUUGUAUGCGAAAGUAUAUUGAUUAGUUUUGGAGUACUCGUGGUCG
In short: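 DiMSum derived fitness as the error-weighted combination of fold changes across replicates, kanamycin versus no kanamycin, normalised to wild type. E. coli BL21(DE3) held the library, which randomised all eight P1ex-region intron nucleotides within the knt kanamycin-resistance gene on pET-22b(+). Six replicate transformations grew overnight at 37°C or 30°C on LB agar with or without 25 μg/mL kanamycin, also containing 100 μg/mL carbenicillin, 50 μM IPTG and 0.2% rhamnose, and pooled colonies were amplicon-sequenced on an Illumina HiSeq 2500.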

Sequence | self-splicing fitness (ln) (30 °C) | self-splicing fitness (ln) (37 °C)
AUGCAGCAAUAUUACGCUGC | -4.54 ± 0.2 | -3.94 ± 0.19
GCUUAGCAAUAUUACGGCCC | 0.0255 ± 0.31 | 
GCUAAGCAAUAUUACGGCCU | -1.89 ± 0.095 | -0.893 ± 0.11
AUAAAGCAAUAUUACGAAUG | -1.48 ± 0.1 | -0.422 ± 0.12
UCCGAGCAAUAUUACGCAAC | -2.57 ± 0.3 | -1.66 ± 0.33
UUAUAGCAAUAUUACGCUUG | -1.46 ± 0.19 | -0.162 ± 0.22
CGACAGCAAUAUUACGCAUC | -3.1 ± 0.14 | -2.75 ± 0.25
CAAGAGCAAUAUUACGGCGA | -3.9 ± 0.28 | -3.24 ± 0.18
UCCCAGCAAUAUUACGGACU | -2.81 ± 0.11 | -1.21 ± 0.096
CUGCAGCAAUAUUACGCAGG | -2.91 ± 0.17 | -2.15 ± 0.16
AAGCAGCAAUAUUACGCGUG | -3.76 ± 0.14 | -2.25 ± 0.11
UCUAAGCAAUAUUACGCGGC |  | -1.59 ± 0.36
UGCGAGCAAUAUUACGUGGA | -3.04 ± 0.23 | -3.49 ± 0.33
ACUAAGCAAUAUUACGUAAA | -2.48 ± 0.13 | -1.6 ± 0.14
ACGUAGCAAUAUUACGACAC | -1.46 ± 0.21 | -0.658 ± 0.18
GGAAAGCAAUAUUACGUGGC | -2.85 ± 0.38 | -2.46 ± 0.34
AAAGAGCAAUAUUACGCAGU | -3.46 ± 0.2 | -1.71 ± 0.17
AACUAGCAAUAUUACGCCCU | 0.324 ± 0.067 | -0.165 ± 0.08
AGUUAGCAAUAUUACGGUCG | -0.622 ± 0.094 | -0.715 ± 0.14
CAGGAGCAAUAUUACGUACG | -1.06 ± 0.088 | 0.312 ± 0.13
CUGCAGCAAUAUUACGGCUG | -3.32 ± 0.3 | -1.52 ± 0.26
UGCCAGCAAUAUUACGCUGG | -3.35 ± 0.24 | -2.63 ± 0.28
AGUAAGCAAUAUUACGUGCC | -0.0863 ± 0.11 | -0.612 ± 0.16
CACGAGCAAUAUUACGGGCA | -2.84 ± 0.31 | 

Sequence | self-splicing fitness (ln) (30 °C) | self-splicing fitness (ln) (37 °C)
GCUUAGCAAUAUUACGACAG | -2.97 ± 0.3 | -1.93 ± 0.47
CCUGAGCAAUAUUACGGAGG | -3.56 ± 0.24 | -2.54 ± 0.26
CAUGAGCAAUAUUACGAAAU | -2.72 ± 0.3 | -3.25 ± 0.43
ACUCAGCAAUAUUACGUGUG | -1.39 ± 0.061 | -1.3 ± 0.072
GGCGAGCAAUAUUACGUGUG | -1.13 ± 0.1 | -0.745 ± 0.14
AAACAGCAAUAUUACGAUUA | -1.16 ± 0.092 | -0.343 ± 0.094
AUGGAGCAAUAUUACGUUCA | -1.16 ± 0.12 | -0.311 ± 0.14
GAAUAGCAAUAUUACGGGCU | -2.85 ± 0.16 | -1.19 ± 0.13
UCUGAGCAAUAUUACGAAAG | -2.21 ± 0.27 | -1.71 ± 0.27
GGCGAGCAAUAUUACGUUAG | -1.94 ± 0.15 | -2.49 ± 0.4
UUUCAGCAAUAUUACGUUUU | -3.86 ± 0.23 | -1.13 ± 0.14
UAGAAGCAAUAUUACGCAUG | -1.12 ± 0.1 | 0.583 ± 0.12
GUAGAGCAAUAUUACGUUGG | -2.16 ± 0.11 | -2.04 ± 0.15
GACAAGCAAUAUUACGGCUC | -0.105 ± 0.07 | 0.0794 ± 0.1
CUAGAGCAAUAUUACGCUAA | -3 ± 0.23 | -2.49 ± 0.25
AGACAGCAAUAUUACGACCA | -0.623 ± 0.11 | -0.823 ± 0.13
GGCGAGCAAUAUUACGGCUC | -1.83 ± 0.11 | -0.815 ± 0.21
CAGAAGCAAUAUUACGCCUG | -2.25 ± 0.23 | -3.94 ± 0.39
CUACAGCAAUAUUACGUUAG | -3.78 ± 0.23 | -2.54 ± 0.14
CUAGAGCAAUAUUACGGCGU | -4.02 ± 0.26 | -0.833 ± 0.16
GCGCAGCAAUAUUACGUCAG | -2.03 ± 0.14 | -2.23 ± 0.18
AGCAAGCAAUAUUACGAGCA | -0.456 ± 0.14 | -0.101 ± 0.14
CACUAGCAAUAUUACGAAAA | -3.29 ± 0.33 | -1.87 ± 0.26
UAUGAGCAAUAUUACGCGGG | -2.75 ± 0.3 | -1.6 ± 0.23
